Consider 16 sequences from the DeepSol protein solubility set.

This data set is described as follows: soluble on expression in E. coli; label from the status in PepcDB or PDB records.
As for “MNELRDPGDAVIAIVGGGASGVLVALQLLRQAVAPVQIVVIEPHAVLGEGVAYSTARPEHLLNVPAARMSALVEAPQDFVDYLRAHACCPELEDARLPQAFVGRRHYAPYLRDRLQTARVQSPATLIVHSARVQTLHADADGALLQLDDGQTLHATSVVLAVGNALRPLPLRGATGLSATQRLEAWDTEAVAALPQDAAVCIVGSGLSMADTVVTLAAQAHRGAVHVVSRHGLLPLPQAHCVAADFDPQPLLALSLRARMRSLRQHAQVAMAQGLPWQGVMERVRPLNQVLWQTLSVADQRRFLRHVVRYWDVHRHRIAAPVHAQLQAMRARGQLQLHRARLDVAFQAGACVRLSAGASAGHALQLDVQTLVNATGVEMRVQAMRNPLLQQLLGQGIAVAGSHGIGVDTAADGCLIDAEGHANPRLRVIGSLRIGSLWESLAVPELREQAAAIARDVLALLGR”, the “soluble on expression in E. coli” value is recorded as “not soluble”.

In the case of “MGSDKIHHHHHHVEGDCMGKGRFILMLHAHLPFINHPDFPSFMEERWLFEAITETYIPLLQGFRRLKRDGVNFKVTMSITPPLMEMFANKDLQKKYLNYLSSSIELAGNEISRTVSEHPAANRLATHYLRELEEIRAVYNECNGDLVGEFAQLQETGELEIVTCNATHGFLPLMTNFPEAINAQIEIGVDSYKKHTGREPRGIWLAECGYVPGFDSYLREHGLSFFFVDSHSLWYGDPAPRYGVYRPVVTPENVFAFARDPESSQQVWSAEVGYPGDARYREFYRDVGFDREEDYIRPYIDPSGERCNTGIKYYKITGKDVSLNEKGYYDIEDARRATVEHAKDFANRKREQIRRLSSQFDGEEPVIVAPFDAELFGHWWYEGPLFIEELFRELNGDITVVPSTPPEVIKSMEQAQVVTP”, the “soluble on expression in E. coli” value is on record as “not soluble”.

For the sequence “MIAGYIMAAENQTLNQWTINQLGITRGDSILEVGFGPGYCMQQMLKREKDVHLHGIDVSEAMLKLAARRVKPKGVRLIQGSIETFPLPASFYDKVISVNNYTIWNDQTKGIKQIYRALKPGGKAAITMQPREADASPEKTKSFGRQMIADFKAAGFEDIDIQFKNIKPELSVCATAKKPATLEHHHHHH”, the “soluble on expression in E. coli” value was “not soluble”.

Consider “MSLTNVVAYIRVSTKSQGDSGLGLEAQRDYIQRAAQANDWNVVGEFVDVVSGKLALEDRPEGAKALTMCKQHNAQLLVAKLDRLSRSVLHIAQLMEQVDFKVATMPQADKFQLHLFAALAQQEREFIATRTKEALASLQRRADAGDAVAQQKVANRAEAQAKGRAVADITAANNIRMSKINTYQTNIEPHLKSCLHDKISEGHHHHHH”, for which the “soluble on expression in E. coli” value is reported as “soluble”.

Consider “MHTLLLLAALSNQITFTTTQQGDIYTVIPQVTLNEPCVCQVQILSVRDGVGGQSHTQQKQTLSLPANQPIELSRLSVNISSEDSVKIIVTVSDGQSLHLSQQWPPSAQ”, for which the “soluble on expression in E. coli” value was “not soluble”.

“MSLRTNEHNFHNIEEEIKHVAVYLRLSRGEDESELDNHKTRLLNRCELNNWSYELYKEIGSGSTIDDRPVMQKLLTDVEKNLYDAVLVVDLDRLSRGNGTDNDRILYSMKVSETLIVVESPYQVLDANNESDEEIILFKGFFARFEFKQINKRMREGKKLAQSRGQWVNSVTPYGYIVNKTTKKLTPSEEEAKVVIMIKDFFFEGKSTSDIAWELNKRKIKPRRATEWRSSSIANILQNEVYVGNIVYNKSVGNKKPSKSKTRVTTPYRRLPEEEWRRVYNAHQPLYSKEEFDRIKQYFECNVKSHKGSEGHHHHHH”: the “soluble on expression in E. coli” value is on record as “soluble”.

For “MCMVKVWVEKLLDEPELYILRLDDSEIKHFEAAWSIPEGITYNAYLMKVGDAVVLFDTWKGEYTEKFLESLSTLVDPKEITHIIVHHTEPDHSGALPKLLELNEYRAKLIGTTFAKNLLQGFYGDKVVENFHTIKDGEEVKIGNRTFRFITVPWLHWPDTMITYDVEDKLIFSCDAGGGYGIPEAIDDSDEDVVKKYLPYVTKYIVTVIGHYHKYIVQNIKKLKELGIIENANMILPGHGLIWRKSPTRIFEHYERVGAGIPTKDKVLVIYDSMYGFVEKRMSVVIEELKRYGKKPVVYRFTDKENPAISDILGEVPDSEALVIGVSTYEADIHPRMRCALYEILDKANYEKPVLIVGAFGWGGVAGKKVETLISRSKFELVDVVETKGRMTSEDEERLREAVRKLIQWQL”, the “soluble on expression in E. coli” value is reported as “soluble”.

Regarding “MGSDKIHHHHHHMRRLNRKNNEALKKLNDRQRKVLYCIVREYIENKKPVSSQRVLEVSNIEFSSATIRNDMKKLEYLGYIYQPHTSAGRIPTDKGLRFYYEEMLKISKETSEADLAVETFKSMPLADPEKVLFLAGNLLARLTEGYVLIERPNTRDLKILRVMLIPVSEDYLIFSILTEFGVSKVTPIKTQERLNWEEIERQLNFLLRGRTVGEVLMGKIESLKGSGFLRLIESLIGETVERYLDAGLENLLKDETLTLEDIRNLLEEVKDQKFLESLVGEGITVRIGREIGRKKLEKFAVFSGKYFKGESPIGSVYLFTSKVTKYDRNHRVFEYILNRLSEYFTSTSRR”, the “soluble on expression in E. coli” value is recorded as “not soluble”.

With “GLGFETMRDGIKVAAKETLLTPRFYTTDFDEMEQLFSKEINPNLDMEELNACLNEFRNDYNKVHFVRNETFKAAADKVTGETRRIFIEFLERSCTAEFSGFLLYKELARRMKASSPEVAEMFLLMSRDEARHAGFLNKALSDFNLALDLGFLTKNRTYTYFKPKFIIYATFLSEKIGYWRYITIYRHLQRNPDNQFYPLFEYFENWCQDENRHGDFLAACLKAKPELLNTFEAKLWSKFFCLSVYITMYLNDHQRTKFYESLGLNTRQFNQHVIIETNRATERLFPVVPDVEDPRFFEILNKMVDVNAKLVELSASSSPLAGLQKLPLLERMASYCLQLLFFKEKDVGSVDIAGSGASRNLAY”, the “soluble on expression in E. coli” value was “not soluble”.

For “ARLRAGFEAAGAQGVETPILQPAETLLDLYGEDIRARAYVTSDALRGEQMLRPDFTVPVVQKHMEHGAEPARYTYAGEVFRRQEHDPDRANEYIQVGYEVFDRTNPAAADAEVFALIAQALDGLALRAATGDIGILMAAVEGLKTTEPRKAALMRHIWRPRRFRALLDRYAGRTTVPPARAALLAESEPLADGAPEIGKRSRAEVEARIEVLRADAAAAPISDNEMAGLDALLSVRETMPYALEHLRDIAVDLPQITPALDRLEARIAALRARGINVDRLDFEASYGRTSMEYYDGFVFGFYAERRPDLPPIATGGRYDALTRRLGNGAEIPAVGGVLRPGLMLLLAEAE”, the “soluble on expression in E. coli” value is “not soluble”.

With “MSLTRPPALSDVPDAAALPAVTAVEAMHCRIPFPSPLQLGKVHMTHRDYVLVRLLLADGGTGHAIGFERGMPLLDLVTRVAPFYVGRSPAMRAAARRAAEAATPPARAVLMRGISLLDIAMWDALARNKGLPLWALLGGARRRVPVMPVVGYGASAPAVAEQCRDLAGRGFRTVKVMIDGSDLAADAALLDAVRKALPDEVAFGIDAHWSWTTIADAMPTCRRAEELGAIFIEDPFLPQQWRTIAELQTQLRVPLAVGEDVIDRYGFRDLAEAARILRVDASVSGGVTGAIEALHLATIMDREVIPHVFPALHGQLAAAFPAARCVEMILPEVGADPVDRLFAEEARIEGGDLLVSETPGAAIAFDWDKARDFALRSERVGEGHHHHHH”, the “soluble on expression in E. coli” value is on record as “soluble”.

On to “MGNTLGLAPMGTLPRRSPRREEPLPNPGSFDELHRLCKDVFPAQMEGVKLVVNKVLSSHFQVAHTIHMSALGLPGYHLHAAYAGDWQLSPTEVFPTVVGDMDSSGSLNAQVLLLLAERLRAKAVFQTQQAKFLTWQFDGEYRGDDYTATLTLGNPDLIGESVIMVAHFLQSLTHRLVLGGELVYHRRPGEEGAILTLAGKYSAVHWVATLNVGSGGAHASYYHRANEQVQVGVEFEANTRLQDTTFSFGYHLTLPQANMVFRGLVDSNWCVGAVLEKKMPPLPVTLALGAFLNHWRNRFHCGFSITVG”, for which the “soluble on expression in E. coli” value was “soluble”.

With “MGSDKIHHHHHHVQESREFILEIAQLNKTYSGNRVLNNINFDLKLGEVHALVGENGAGKSTLIKIIAGVEKPDPGAEILFGGCPAINLNPSKSVQMGISVIYQDISLFPNLSVAENICIGGQKGLFIKWKQVFETARSALIKLGAIDIDPHVPLGEISIGQRQMVALARALTHEARVIIMDEPTSSLSANEIKALYSAIQILKNENKSLIYISHKFEEVFEVADRISVLRDGEMIASKAAWEFDEQSLISMMVGREIRFLPMRNDGVAGKKLLEVRGLTKEPLFRNISFSLYENEILGITGLVGAGRSEMAQTLFGLEKADKGRIFMGEKELSIKSAVDAIKSGICYLPEDRRGQGIFLIQSMARNITTAKLESILNRCRLLSRPKEMAVSEYYMDRLNIKPRLPDISADKMSGGNQQKLLFSRWLNARPQILIADEPSSGIDVATKAEIHGLLRELAASGVGVILISSDLPETLAVCDRILVMRNGNIVDQTSSKESSQEELIRKGLMG”, the “soluble on expression in E. coli” value is reported as “not soluble”.

For “MDERRTAEERRERMLPETMPVCPVRGSVIYPTMVMPIDAGRPISIRAIDEALARDRVLLIVSQRDKEVETPRPSDLFEVGTACNILKMRKNPDGSVQVLVQAFARVRVREWLDLGDHLEARGEVLADEPGEPILVKALVREVKDKFQALLKEGKYLAPEVAQFILNLEDPSQLADYVAFHMDFRLEDKQKVLETANVAERLRAVLVLLEAELALIETQRRIQQQVKEEIDRNQREYFLREQMKAIQRELHGEEGEQEVEEFRRKLEALDLPPVVRQEAERELNRFARMHPDSAEASVIRTYLDWIVNLPWNTRTEDNLDLERAKEILERDHYGLEKVKDRVLEYLAVRKLKAERAKRGEIPPDEVNKGPILLFVGPPGVGKTSIAKSIAEALGRKYVRVSLGGVRDESDIRGHRRTYIGAMPGRIIQGLRQAGTKNPVFLLDEVDKLGISYQGDPAAALLEVLDPAQNKEFVDHYLGVPFDLSEVMFICTANFPQNIPAPLYDRMEPIEFTSYTEQEKLEIAKRYLLPRQLKENGLEPEQVVVTEAALTRLITHYTREAGVRQLEREIGALLRKAARRILEEGKKRVRITEKDLEAYLGPPRFLPETEAREPQVGVATGMYYTPVGGDIMFVEVSVMPGKGNLILTGQLGDVMKESARAALSYAKKNALRFGIPLEKFDKSDIHIHVPAGAIPKEGPSAGVALVSALVSALTEVPVRHDIAMTGEITLTGRVLPIGGVKEKVLGARRAGIREVILPKLNEPDLSDIPKPLRQNMTFHFVEHLDQVLDLALVGGLKALEERGRRPRSARKKKELVAHA”, the “soluble on expression in E. coli” value is listed as “soluble”.

As to “MLPVITRFARPALMAIRPVNAMGVLRASSITKRLYHPKVIEHYTHPRNVGSLDKKLPNVGTGLVGAPACGDVMRLQIKVNDSTGVIEDVKFKTFGCGSAIASSSYMTELVQGMTLDDAAKIKNTEIAKELSLPPVKLHCSMLAEDAIKAAIKDYKSKRNTPTMLS”, the “soluble on expression in E. coli” value is “not soluble”.

Turning to “MSLSPEGVNGNRCSESFPLLEKYRIGKVIGDGNFAVVKECVDRYTGKEFALKIIDKAKCCGKEHLIENEVSILRRVKHPNIIMLVEEMETATDLFLVMELVKGGDLFDAITSSTKYTERDGSAMVYNLANALRYLHSLSIVHRDIKPENLLVCEYPDGTKSLKLGDFGLATVVEGPLYTVCGTPTYVAPEIIAETGYGLKVDVWAAGVITYILLCGFPPFRSENNLQEDLFDQILAGKLEFPAPYWDNITDSAKELISQMLQVNVEARCTAGEILSHPWVSDDASQENNMQAEVTGKLKQHFNNALPKQNSTTTGVSVIMNTALDKEGQIFCSKLCQDSSRPSREGHHHHHH”, the “soluble on expression in E. coli” value is “not soluble”.
